Legend:
casein = experiment: Casein zymography and protease assay with casein sodium; type: biochemical; settings: for protease activity using casein sodium as a substrate: HtrA2 types expressed in a cultured cell
Description: Determination of the activity of mature HtrA2 and mature HtrA2 (S306A) was carried out with casein zymography and with a protease assay with casein sodium. Casein zymography was carried out according to the protocol (Invitrogen). More concretely, mature HtrA2 and mature HtrA2 (S306A) were mixed under non-reductive condition with equivalent volume of 2×SDS sample buffer, left to stand at room temperature for 10 min, followed by separation with 4-16% zymogram (Blue casein) gel (Zymogram Gel, Invitrogen). After completion of electrophoresis, they were renatured with 2.5% Triton X-100, and then subjected to a degradation reaction of casein in the developing buffer at 37= C. for overnight.
Meanwhile, a protease assay using casein sodium as an substrate was carried out in such that mature HtrA2 or mature HtrA2 (S306A) was mixed with casein sodium in a reaction buffer (150 mM NaCl, 50 mM Tris-HCl (pH 7.5)) so as to the concentration of the former might become 200 μg/ml and the concentration of the latter might become 400 μg/ml, and incubated at 37° C. for reactions. A portion of the reaction solution was sampled at three hours and overnight after initiation of the reaction, mixed with equivalent volume of 2×SDS sample buffer followed by boiling, and then subjected to SDS-PAGE. After that, the degradation of casein sodium was detected by Coomassie Brilliant Blue (CBB) staining.
The enzyme activity of the various types of HtrA2 each of which was expressed in a cultured cell was determined by the protease assay using casein sodium as a substrate (see Example 2).

CREBL1 = biological target: T1, CREBL1 (Homo sapiens, UniProt Q99941); experiment: Intracellular protease assay, co-expression with CREBL1 in HEK293T cells; type: cell-based; settings: 48 hours
T1 construct: expressed in transfected cells; host or cells: HEK293T
T1 sequence (Q99941 1-703): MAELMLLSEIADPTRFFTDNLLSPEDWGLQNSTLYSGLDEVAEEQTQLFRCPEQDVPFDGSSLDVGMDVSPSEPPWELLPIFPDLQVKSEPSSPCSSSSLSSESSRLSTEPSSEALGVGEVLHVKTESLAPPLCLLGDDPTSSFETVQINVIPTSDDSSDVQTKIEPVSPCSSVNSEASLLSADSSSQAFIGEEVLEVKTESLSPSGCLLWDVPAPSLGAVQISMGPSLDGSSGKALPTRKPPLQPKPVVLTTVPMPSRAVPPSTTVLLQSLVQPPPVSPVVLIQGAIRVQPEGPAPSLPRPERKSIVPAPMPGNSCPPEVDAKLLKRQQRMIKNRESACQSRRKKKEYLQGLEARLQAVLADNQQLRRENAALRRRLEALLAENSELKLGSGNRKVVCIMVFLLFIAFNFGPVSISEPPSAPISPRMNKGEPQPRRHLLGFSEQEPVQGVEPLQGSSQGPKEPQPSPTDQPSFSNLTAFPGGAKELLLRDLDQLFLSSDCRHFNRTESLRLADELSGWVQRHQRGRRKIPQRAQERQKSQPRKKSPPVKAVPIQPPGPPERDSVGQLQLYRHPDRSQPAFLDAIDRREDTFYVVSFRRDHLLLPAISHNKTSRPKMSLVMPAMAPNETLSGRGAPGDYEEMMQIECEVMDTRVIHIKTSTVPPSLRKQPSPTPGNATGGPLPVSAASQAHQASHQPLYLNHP
Description: (§1) HEK293T cells were cultured to 1.5×10^5 cells/10 cm Dish. Next day, the expression plasmid of CREBL1 or ATF6 was transfected into HEK293T cells together with the expression plasmid of various types of HtrA2 using FuGene 6 (Roche). Each of the expression plasmid of various HtrA2 at 1 μg/Dish was added in combination with CREBL1 expression plasmid or ATF6 expression plasmid at 1 μg/Dish. Forty eight hours later, the cells in which the various types of HtrA2 were co-expressed with CREBL1 or ATF6 were added with 200 μl of lysis buffer B and an equivalent volume of 2×SDS sample buffer (containing 0.1% β-mercaptoethanol), and then subjected to sonication followed by boiling to use as a test sample.
(§2) Expression of CREBL1 and ATF6 and the degradation of these proteins were detected by western blotting using 10 μl of the test sample thus obtained. Anti-c-Myc (9E10) antibody was used as a primary antibody for detection, and horseradish peroxidase (HRP) conjugated anti-mouse IgG antibody (Cell Signaling) was used as a secondary antibody. Detection was carried out using ECL Western Blotting Detection System.

ATF6 = biological target: T2, ATF6 (Homo sapiens, UniProt P18850); experiment: Intracellular protease assay, co-expression with ATF6 in HEK293T cells; type: cell-based; settings: 48 hours
T2 construct: expressed in transfected cells; host or cells: HEK293T
T2 sequence (P18850 1-670): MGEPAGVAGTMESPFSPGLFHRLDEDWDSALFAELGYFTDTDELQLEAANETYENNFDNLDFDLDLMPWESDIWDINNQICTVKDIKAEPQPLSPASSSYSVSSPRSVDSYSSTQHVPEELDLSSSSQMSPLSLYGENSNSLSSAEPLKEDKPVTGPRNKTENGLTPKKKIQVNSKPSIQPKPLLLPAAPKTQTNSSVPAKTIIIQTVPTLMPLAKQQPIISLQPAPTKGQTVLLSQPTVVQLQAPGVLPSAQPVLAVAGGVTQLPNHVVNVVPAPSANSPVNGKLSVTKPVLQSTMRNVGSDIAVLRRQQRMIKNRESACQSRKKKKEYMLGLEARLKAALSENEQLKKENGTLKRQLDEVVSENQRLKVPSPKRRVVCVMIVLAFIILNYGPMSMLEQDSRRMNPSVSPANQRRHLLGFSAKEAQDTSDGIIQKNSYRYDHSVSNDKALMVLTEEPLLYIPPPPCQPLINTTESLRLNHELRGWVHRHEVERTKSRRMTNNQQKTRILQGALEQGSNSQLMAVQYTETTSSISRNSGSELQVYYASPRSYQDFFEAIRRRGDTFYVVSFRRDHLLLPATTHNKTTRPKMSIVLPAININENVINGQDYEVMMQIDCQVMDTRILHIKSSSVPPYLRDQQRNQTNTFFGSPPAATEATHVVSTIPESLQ
Description: as §1, §2

HNF-4α = biological target: T3, HNF-4α (Homo sapiens, UniProt P41235); experiment: Intracellular protease assay, co-expression with HNF-4α in HEK293T cells; type: cell-based; settings: 48 hours
T3 construct: expressed in transfected cells; host or cells: HEK293T
T3 sequence (P41235 10-474): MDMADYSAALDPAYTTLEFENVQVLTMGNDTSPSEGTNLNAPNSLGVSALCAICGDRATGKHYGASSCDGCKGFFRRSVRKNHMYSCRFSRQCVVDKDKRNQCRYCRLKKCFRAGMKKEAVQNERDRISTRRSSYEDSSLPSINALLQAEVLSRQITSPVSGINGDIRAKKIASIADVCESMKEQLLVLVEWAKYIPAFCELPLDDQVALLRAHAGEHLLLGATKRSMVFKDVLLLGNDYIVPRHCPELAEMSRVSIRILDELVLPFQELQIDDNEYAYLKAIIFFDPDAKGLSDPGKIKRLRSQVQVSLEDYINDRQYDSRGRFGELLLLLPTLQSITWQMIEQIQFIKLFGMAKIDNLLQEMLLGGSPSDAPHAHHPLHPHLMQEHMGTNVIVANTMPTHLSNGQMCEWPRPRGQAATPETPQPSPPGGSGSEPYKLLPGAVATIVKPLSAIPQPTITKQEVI
Description: as §1, with “cells/6” for “cells/10”, “HNF-4α” for “CREBL1 or ATF6”, “HNF-4α” for “CREBL1 expression plasmid or ATF6”
Expression of HNF-4α and the degradation of HNF-4α were detected by western blotting using 10 μl of the test sample thus obtained. Anti-FLAG antibody (Sigma) was used as a primary antibody for detection, and horseradish peroxidase (HRP) labeled anti-mouse IgG antibody (Cell Signaling) was used as a secondary antibody. Detection was carried out using ECL Western Blotting Detection System.

Row | Molecule | protease activity using casein sodium as a substrate (casein) | degradation of CREBL1 in cells (band by western blotting) (CREBL1) | degradation of ATF6 in cells (band by western blotting) (ATF6) | degradation of HNF-4α in cells (band by western blotting) (HNF-4α) | degradation of casein (casein; casein zymography and casein sodium protease assay, 37° C., E. coli-expressed His-tagged protein)
1 | mature HtrA2 (ΔAVPS): SEQ ID NO: 8; lacks the N-terminal four amino acid residues (AVPS) of mature HtrA2 (protein, Polypeptide consisting of the same amino acid sequence of SEQ ID NO4 wherein the amino acid residues from the 2nd to the 5th are deleted; mature HtrA2(delta AVPS)) MPPPASPRSQYNFIADVVEKTAPAVVYIEILDRHPFLGREVPISNGSGFVVAADGLIVTNAHVVADRRRVRVRLLSGDTYEAVVTAVDPVADIATLRIQTKEPLPTLPLGRSADVRQGEFVVAMGSPFALQNTITSGIVSSAQRPARDLGLPQTNVEYIQTDAAIDFGNSGGPLVNLDGEVIGVNTMKVTAGISFAIPSDRLREFLHRGEKKNSSSGISGSQRRYIGVMMLTLSPSILAELQLREPSFPDVQHGVLIHKVILGSPAHRAGLRPGDVILAIGEQMVQNAEDVYEAVRTQSQLAVQIRRGRETLTLYVTPEVTE | active type having protease activity | the band of CREBL1 was reduced significantly | the band of ATF6 was reduced significantly | the band of HNF-4α was reduced significantly | 
2 | mature HtrA2 (S306A): SEQ ID NO: 6; HtrA2 mutant with substitution of the 174th serine residue of mature HtrA2 with alanine (protein, Polypeptide consisting of the same amino acid sequence of SEQ ID NO4 wherein the 174th amino acid residue is substituted by Ala; mature HtrA2(S306A), HtrA2 mutant with substitution of the 174th serine residue of mature HtrA2 with alanine) MAVPSPPPASPRSQYNFIADVVEKTAPAVVYIEILDRHPFLGREVPISNGSGFVVAADGLIVTNAHVVADRRRVRVRLLSGDTYEAVVTAVDPVADIATLRIQTKEPLPTLPLGRSADVRQGEFVVAMGSPFALQNTITSGIVSSAQRPARDLGLPQTNVEYIQTDAAIDFGNAGGPLVNLDGEVIGVNTMKVTAGISFAIPSDRLREFLHRGEKKNSSSGISGSQRRYIGVMMLTLSPSILAELQLREPSFPDVQHGVLIHKVILGSPAHRAGLRPGDVILAIGEQMVQNAEDVYEAVRTQSQLAVQIRRGRETLTLYVTPEVTE |  |  |  |  | degradation of casein was not observed
3 | mature HtrA2 (GVPS): SEQ ID NO: 10; substitution of alanine among the N-terminal four residues of mature HtrA2 with glycine (protein, Polypeptide consisting of the same amino acid sequence of SEQ ID NO4 wherein the 2nd amino acid residue is substituted by Gly; mature HtrA2(GVPS), substitution of alanine among the N-terminal four residues of mature HtrA2 with glycine) MGVPSPPPASPRSQYNFIADVVEKTAPAVVYIEILDRHPFLGREVPISNGSGFVVAADGLIVTNAHVVADRRRVRVRLLSGDTYEAVVTAVDPVADIATLRIQTKEPLPTLPLGRSADVRQGEFVVAMGSPFALQNTITSGIVSSAQRPARDLGLPQTNVEYIQTDAAIDFGNSGGPLVNLDGEVIGVNTMKVTAGISFAIPSDRLREFLHRGEKKNSSSGISGSQRRYIGVMMLTLSPSILAELQLREPSFPDVQHGVLIHKVILGSPAHRAGLRPGDVILAIGEQMVQNAEDVYEAVRTQSQLAVQIRRGRETLTLYVTPEVTE | active type having protease activity | the band of CREBL1 was reduced significantly | the band of ATF6 was reduced significantly | the band of HNF-4α was reduced significantly | 
